Results taken from article doi:10.1101/2021.04.07.438849 (bioRxiv, 2021).

Biological target: T1, SARS-CoV-2 Wuhan-Hu-1 S-HexaPro-D614G, displayed on HEK293T cells (SARS-CoV-2 Wuhan-Hu-1 with D614G …, UniProt A0A6N0C4S6, D614G)
T1 construct: also called WT (HexaPro-D614G); prefusion stabilized SARS-CoV-2 S D614G
Test: flow cytometry on cells
Details: one partner purified

B1: A7V3 IgG (antibody, V domains shown)
VH: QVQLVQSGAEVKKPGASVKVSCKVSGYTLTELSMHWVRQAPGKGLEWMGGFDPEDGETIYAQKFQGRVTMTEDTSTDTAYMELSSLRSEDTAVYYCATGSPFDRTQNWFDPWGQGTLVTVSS
VL: QSVVTQPPSVSAAPGQKVTISCSGSSSNIGNNYVSWYQQLPGTAPKLLIYDNNKRPSGIPDRFSGSKSGTSATLGITGLQTGDEADYYCGTWDSSLSAVVFGGGTKLTVL
notes: also called mAb A7V3
B1: binds.
